Source: the supplement of paper PMC5998384

Experiments:
HeLa Kyoto [1] = assay: solubility in G1/S (NP-40 vs SDS abundance) (log2 ratio); higher = more soluble; details: cell cycle stage: G1/S
HeLa Kyoto [2] = assay: melting temperature (median over replicates), in situ; higher = more thermally stable
HeLa Kyoto [3] = assay: solubility change mitosis vs G1/S (difference of NP-40 vs SDS log2 ratios) (log2 ratio difference); higher = more soluble in mitosis
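Throughout, for melting temperature (median over replicates), in situ: HeLa Kyoto cells synchronized by double thymidine or nocodazole block, proteins quantified by TMT10plex mass spectrometry, three independent biological replicates.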
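Throughout, for solubility change mitosis vs G1/S (difference of NP-40 vs SDS log2 ratios): synchronized HeLa Kyoto cells (double thymidine block for G1/S, nocodazole release for mitosis), protein amounts in NP-40 versus SDS lysates quantified by mass spectrometry, three biological replicates.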
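Throughout, for solubility in G1/S (NP-40 vs SDS abundance): HeLa Kyoto cells arrested at G1/S by double thymidine block, proteins quantified by TMT10plex mass spectrometry in mild NP-40 versus SDS extracts, three biological replicates.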

Substance	solubility in G1/S (log2) (HeLa Kyoto [1])	melting temperature (HeLa Kyoto [2]; cell cycle stage: G1/S) [°C]	melting temperature (HeLa Kyoto [2]; cell cycle stage: mitosis) [°C]	solubility change mitosis (log2) (HeLa Kyoto [3])
MEAVATATAAKEPDKGCIEPGPGHWGELSRTPVPSKPQDKVEAAEATPVALDSDTSGAENAAVSAMLHAVAASRLPVCSQQQGEPDLTEHEKVAILAQLYHEKPLVFLERFRTGLREEHLACFGHVRGDHRADFYCAEVARQGTARPRTLRTRLRNRRYAALRELIQGGEYFSDEQMRFRAPLLYEQYIGQYLTQEELSARTPTHQPPKPGSPGRPACPLSNLLLQSYEERELQQRLLQQQEEEEACLEEEEEEEDSDEEDQRSGKDSEAWVPDSEERLILREEFTSRMHQRFLDGKDGDFDYSTVDDNPDFDNLDIVARDEEERYFDEEEPEDAPSPELDGD [CCDC97]	0.105	49.6	50.8	0.36
TNRC6A	-0.225	50.7	–	-0.0232
MSGSLGRAAAALLRWGRGAGGGGLWGPGVRAAGSGAGGGGSAEQLDALVKKDKVVVFLKGTPEQPQCGFSNAVVQILRLHGVRDYAAYNVLDDPELRQGIKDYSNWPTIPQVYLNGEFVGGCDILLQMHQNGDLVEELKKLGIHSALLDEKKDQDSK [GLRX5]	-0.00395	53.9	53	-0.0285
MDTSSVGGLELTDQTPVLLGSTAMATSLTNVGNSFSGPANPLVSRSNKFQNSSVEDDDDVVFIEPVQPPPPSVPVVADQRTITFTSSKNEELQGNDSKITPSSKELASQKGSVSETIVIDDEEDMETNQGQEKNSSNFIERRPPETKNRTNDVDFSTSSFSRSKVNAGMGNSGITTEPDSEIQIANVTTLETGVSSVNDGQLENTDGRDMNLMITHVTSLQNTNLGDVSNGLQSSNFGVNIQTYTPSLTSQTKTGVGPFNPGRMNVAGDVFQNGESATHHNPDSWISQSASFPRNQKQPGVDSLSPVASLPKQIFQPSVQQQPTKPVKVTCANCKKPLQKGQTAYQRKGSAHLFCSTTCLSSFSHKPAPKKLCVMCKKDITTMKGTIVAQVDSSESFQEFCSTSCLSLYEDKQNPTKGALNKSRCTICGKLTEIRHEVSFKNMTHKLCSDHCFNRYRMANGLIMNCCEQCGEYLPSKGAGNNVLVIDGQQKRFCCQSCVSEYKQVGSHPSFLKEVRDHMQDSFLMQPEKYGKLTTCTGCRTQCRFFDMTQCIGPNGYMEPYCSTACMNSHKTKYAKSQSLGIICHFCKRNSLPQYQATMPDGKLYNFCNSSCVAKFQALSMQSSPNGQFVAPSDIQLKCNYCKNSFCSKPEILEWENKVHQFCSKTCSDDYKKLHCIVTYCEYCQEEKTLHETVNFSGVKRPFCSEGCKLLYKQDFARRLGLRCVTCNYCSQLCKKGATKELDGVVRDFCSEDCCKKFQDWYYKAARCDCCKSQGTLKERVQWRGEMKHFCDQHCLLRFYCQQNEPNMTTQKGPENLHYDQGCQTSRTKMTGSAPPPSPTPNKEMKNKAVLCKPLTMTKATYCKPHMQTKSCQTDDTWRTEYVPVPIPVPVYIPVPMHMYSQNIPVPTTVPVPVPVPVFLPAPLDSSEKIPAAIEELKSKVSSDALDTELLTMTDMMSEDEGKTETTNINSVIIETDIIGSDLLKNSDPETQSSMPDVPYEPDLDIEIDFPRAAEELDMENEFLLPPVFGEEYEEQPRPRSKKKGAKRKAVSGYQSHDDSSDNSECSFPFKYTYGVNAWKHWVKTRQLDEDLLVLDELKSSKSVKLKEDLLSHTTAELNYGLAHFVNEIRRPNGENYAPDSIYYLCLGIQEYLCGSNRKDNIFIDPGYQTFEQELNKILRSWQPSILPDGSIFSRVEEDYLWRIKQLGSHSPVALLNTLFYFNTKYFGLKTVEQHLRLSFGTVFRHWKKNPLTMENKACLRYQVSSLCGTDNEDKITTGKRKHEDDEPVFEQIENTANPSRCPVKMFECYLSKSPQNLNQRMDVFYLQPECSSSTDSPVWYTSTSLDRNTLENMLVRVLLVKDIYDKDNYELDEDTD [ZMYM2]	-0.229	49.3	49.7	0.00298
MAAAAAALSGAGTPPAGGGAGGGGAGGGGSPPGGWAVARLEGREFEYLMKKRSVTIGRNSSQGSVDVSMGHSSFISRRHLEIFTPPGGGGHGGAAPELPPAQPRPDAGGDFYLRCLGKNGVFVDGVFQRRGAPPLQLPRVCTFRFPSTNIKITFTALSSEKREKQEASESPVKAVQPHISPLTINIPDTMAHLISPLPSPTGTISAANSCPSSPRGAGSSGYKVGRVMPSDLNLMADNSQPENEKEASGGDSPKDDSKPPYSYAQLIVQAITMAPDKQLTLNGIYTHITKNYPYYRTADKGWQNSIRHNLSLNRYFIKVPRSQEEPGKGSFWRIDPASESKLIEQAFRKRRPRGVPCFRTPLGPLSSRSAPASPNHAGVLSAHSSGAQTPESLSREGSPAPLEPEPGAAQPKLAVIQEARFAQSAPGSPLSSQPVLITVQRQLPQAIKPVTYTVATPVTTSTSQPPVVQTVHVVHQIPAVSVTSVAGLAPANTYTVSGQAVVTPAAVLAPPKAEAQENGDHREVKVKVEPIPAIGHATLGTASRIIQTAQTTPVQTVTIVQQAPLGQHQLPIKTVTQNGTHVASVPTAVHGQVNNAAASPLHMLATHASASASLPTKRHNGDQPEQPELKRIKTEDGEGIVIALSVDTPPAAVREKGVQN [FOXK2]	0.267	–	50.7	-0.0189
MATGDLKRSLRNLEQVLRLLNYPEEVDCVGLIKGDPAASLPIISYSFTSYSPYVTELIMESNVELIAKNDLRFIDAVYKLLRDQFNYKPILTKKQFIQCGFAEWKIQIVCDILNCVMKKHKELSSLQKIPSQQRKKISSGKSEPPLGNEKISAEAVGVDISGRFMTSGKKKAVVIRHLYNEDNVDISEDTLSPITDVNEAVDVSDLNATEIKMPEVKVPEIKAEQQDVNVNPEITALQTMLAECQENLKKLTSIEKRLDCLEQKMKGKVMVDENTWTNLLSRVTLLETEMLLSKKNDEFIEFNEVSEDYASCSDMDLLNPHRKSEVERPASIPLSSGYSTASSDSTPRASTVNYCGLNEISEETTIQKMERMKKMFEETAELLKCPNHYL [CEP44]	0.259	48.6	49.3	-0.26
MIEDTMTLLSLLGRIMRYFLLRPETLFLLCISLALWSYFFHTDEVKTIVKSSRDAVKMVKGKVAEIMQNDRLGGLDVLEAEFSKTWEFKNHNVAVYSIQGRRDHMEDRFEVLTDLANKTHPSIFGIFDGHGGETAAEYVKSRLPEALKQHLQDYEKDKENSVLSYQTILEQQILSIDREMLEKLTVSYDEAGTTCLIALLSDKDLTVANVGDSRGVLCDKDGNAIPLSHDHKPYQLKERKRIKRAGGFISFNGSWRVQGILAMSRSLGDYPLKNLNVVIPDPDILTFDLDKLQPEFMILASDGLWDAFSNEEAVRFIKERLDEPHFGAKSIVLQSFYRGCPDNITVMVVKFRNSSKTEEQ [PPM1L]	-0.0862	–	53.9	-0.142
MAERPEDLNLPNAVITRIIKEALPDGVNISKEARSAISRAASVFVLYATSCANNFAMKGKRKTLNASDVLSAMEEMEFQRFVTPLKEALEAYRREQKGKKEASEQKKKDKDKKTDSEEQDKSRDEDNDEDEERLEEEEQNEEEEVDN [POLE3]	0.357	49.2	–	0.5
SYNE2	-0.84	51.1	50.3	0.607
MRRFKRKHLTAIDCQHLARSHLAVTQPFGQRWTNRDPNHGLYPKPRTKRGSRGQGSQRCIPEFFLAGKQPCTNDMAKSNSVGQDSCQDSEGDMIFPAESSCALPQEGSAGPGSPGSAPPSRKRSWSSEEESNQATGTSRWDGVSKKAPRHHLSVPCTRPREARQEAEDSTSRLSAESGETDQDAGDVGPDPIPDSYYGLLGTLPCQEALSHICSLPSEVLRHVFAFLPVEDLYWNLSLVCHLWREIISDPLFIPWKKLYHRYLMNEEQAVSKVDGILSNCGIEKESDLCVLNLIRYTATTKCSPSVDPERVLWSLRDHPLLPEAEACVRQHLPDLYAAAGGVNIWALVAAVVLLSSSVNDIQRLLFCLRRPSSTVTMPDVTETLYCIAVLLYAMREKGINISNRIHYNIFYCLYLQENSCTQATKVKEEPSVWPGKKTIQLTHEQQLILNHKMEPLQVVKIMAFAGTGKTSTLVKYAEKWSQSRFLYVTFNKSIAKQAERVFPSNVICKTFHSMAYGHIGRKYQSKKKLNLFKLTPFMVNSVLAEGKGGFIRAKLVCKTLENFFASADEELTIDHVPIWCKNSQGQRVMVEQSEKLNGVLEASRLWDNMRKLGECTEEAHQMTHDGYLKLWQLSKPSLASFDAIFVDEAQDCTPAIMNIVLSQPCGKIFVGDPHQQIYTFRGAVNALFTVPHTHVFYLTQSFRFGVEIAYVGATILDVCKRVRKKTLVGGNHQSGIRGDAKGQVALLSRTNANVFDEAVRVTEGEFPSRIHLIGGIKSFGLDRIIDIWILLQPEEERRKQNLVIKDKFIRRWVHKEGFSGFKRYVTAAEDKELEAKIAVVEKYNIRIPELVQRIEKCHIEDLDFAEYILGTVHKAKGLEFDTVHVLDDFVKVPCARHNLPQLPHFRVESFSEDEWNLLYVAVTRAKKRLIMTKSLENILTLAGEYFLQAELTSNVLKTGVVRCCVGQCNNAIPVDTVLTMKKLPITYSNRKENKGGYLCHSCAEQRIGPLAFLTASPEQVRAMERTVENIVLPRHEALLFLVF [FBXO18]	-0.21	51.7	52.4	-0.0335
MSRLIVKNLPNGMKEERFRQLFAAFGTLTDCSLKFTKDGKFRKFGFIGFKSEEEAQKAQKHFNKSFIDTSRITVEFCKSFGDPAKPRAWSKHAQKPSQPKQPPKDSTTPEIKKDEKKKKVAGQLEKLKEDTEFQEFLSVHQRRAQAATWANDGLDAEPSKGKSKPASDYLNFDSDSGQESEEEGAGEDLEEEASLEPKAAVQKELSDMDYLKSKMVKAGSSSSSEEEESEDEAVHCDEGSEAEEEDSSATPVLQERDSKGAGQEQGMPAGKKRPPEARAETEKPANQKEPTTCHTVKLRGAPFNVTEKNVMEFLAPLKPVAIRIVRNAHGNKTGYIFVDFSNEEEVKQALKCNREYMGGRYIEVFREKNVPTTKGAPKNTTKSWQGRILGENEEEEDLAESGRLFVRNLPYTSTEEDLEKLFSKYGPLSELHYPIDSLTKKPKGFAFITFMFPEHAVKAYSEVDGQVFQGRMLHVLPSTIKKEASEDASALGSSSYKKKKEAQDKANSASSHNWNTLFMGPNAVADAIAQKYNATKSQVFDHETKGSVAVRVALGETQLVQEVRRFLIDNGVSLDSFSQAAAERSKTVILVKNLPAGTLAAQLQETFGHFGSLGRVLLPEGGITAIVEFLEPLEARKAFRHLAYSKFHHVPLYLEWAPVGVFSSTAPQKKKLQDTPSEPMEKDPAEPETVPDGETPEDENPTEEGADNSSAKMEEEEEEEEEEEESLPGCTLFIKNLNFDTTEEKLKEVFSKVGTVKSCSISKKKNKAGVLLSMGFGFVEYRKPEQAQKALKQLQGHVVDGHKLEVRISERATKPAVTLARKKQVPRKQTTSKILVRNIPFQAHSREIRELFSTFGELKTVRLPKKMTGTGTHRGFGFVDFLTKQDAKRAFNALCHSTHLYGRRLVLEWADSEVTLQALRRKTAAHFHEPPKKKRSVVLDEILEQLEGSDSDSEEQTLQL [RBM19]	-1.27	48.5	51.2	0.706
ARSB	0.364	56.3	57.3	-0.198
MISQFFILSSKGDPLIYKDFRGDSGGRDVAELFYRKLTGLPGDESPVVMHHHGRHFIHIRHSGLYLVVTTSENVSPFSLLELLSRLATLLGDYCGSLGEGTISRNVALVYELLDEVLDYGYVQTTSTEMLRNFIQTEAVVSKPFSLFDLSSVGLFGAETQQSKVAPSSAASRPVLSSRSDQSQKNEVFLDVVERLSVLIASNGSLLKVDVQGEIRLKSFLPSGSEMRIGLTEEFCVGKSELRGYGPGIRVDEVSFHSSVNLDEFESHRILRLQPPQGELTVMRYQLSDDLPSPLPFRLFPSVQWDRGSGRLQVYLKLRCDLLSKSQALNVRLHLPLPRGVVSLSQELSSPEQKAELAEGALRWDLPRVQGGSQLSGLFQMDVPGPPGPPSHGLSTSASPLGLGPASLSFELPRHTCSGLQVRFLRLAFRPCGNANPHKWVRHLSHSDAYVIRI [AP4M1]	-0.0981	49.2	–	-0.0241
